Experimental data as given in the supplement of paper PMC7125110.
± gives the standard error. Fewer inactive variants are shown than the library holds.

B1: glmS ribozyme (parent)
chain: AUAAAAGCGCCAGAACUACAGAAAUGUAGUUGACGAGGAGGAGGUUUAUCGAAUUUUCGGCGGAUGCCUCCAAA

How the values were obtained:
Conditions in all cases: with glucosamine-6-phosphate
glucosamine-6-phosphate [1] = variants of: B1; assay: self-cleavage kobs at 160 uM GlcN6P; higher = faster cleavage; RNA array
In short: (§1)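 kobs was derived by fitting per-tile medians to one- or two-exponential decays after normalising signals to baseline and to non-cleaving reference variants. Those signals came from barcoded ribozyme variants transcribed in situ by E. coli RNA polymerase on sequenced MiSeq chips, followed through a hybridised Cy3 probe at 37 °C and imaged over ~14 h. Glucosamine-6-phosphate (40 μM to 10 mM) in HEPES/KCl/Mg(OAc)2 buffer was flowed in. Weighted Michaelis–Menten fits across concentrations then gave kcat and KM.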

glucosamine-6-phosphate [2] = variants of: B1; assay: self-cleavage kobs at 640 uM GlcN6P; higher = faster cleavage; RNA array
In short: as §1

glucosamine-6-phosphate [3] = variants of: B1; assay: self-cleavage kobs at 2500 uM GlcN6P; higher = faster cleavage; RNA array
In short: as §1

glucosamine-6-phosphate [4] = variants of: B1; assay: self-cleavage kobs at 10000 uM GlcN6P; higher = faster cleavage; RNA array
In short: as §1

Row | Variant | self-cleavage kobs at 160 uM GlcN6P (glucosamine-6-phosphate [1]) [s⁻¹] | self-cleavage kobs at 640 uM GlcN6P (glucosamine-6-phosphate [2]) [s⁻¹] | self-cleavage kobs at 2500 uM GlcN6P (glucosamine-6-phosphate [3]) [s⁻¹] | self-cleavage kobs at 10000 uM GlcN6P (glucosamine-6-phosphate [4]) [s⁻¹]
1 | G41U A52U U57C | < 1e-05 |  |  | 
2 | G51U A52G C58U G59A | < 1e-05 | < 1e-05 | < 1e-05 | 
3 | C10G U31A U49G | < 1e-05 |  |  | 
4 | C34G G37A | < 1e-05 | < 1e-05 |  | 
5 | C10A A15G C34A G44A C67A C68A | < 1e-05 | < 1e-05 | < 1e-05 | 
6 | G9U G13C G40A G44U G63U | < 1e-05 | < 1e-05 | < 1e-05 | 
7 | U56A U69G | 5.23e-05 ± 1e-05 | 5.7e-05 ± 2e-05 | 0.000127 ± 4.2e-05 | 4.58e-05 ± 8.9e-06
8 | C16G G29C A33U A48C | < 1e-05 | < 1e-05 |  | 
9 | G32U G38U G43U A53U | < 1e-05 | < 1e-05 |  | 
10 | G32C G38A C50G | 0.000156 ± 5.3e-05 | 0.000119 ± 3e-05 | 8.89e-05 ± 2.7e-05 | 
11 | U31C U54C C67U | 8.1e-05 ± 1.6e-05 | 0.000176 ± 3.7e-05 | 0.000804 ± 0.0002 | 
12 | C8U A33G G37U G43C U54A U56C C67U | < 1e-05 | < 1e-05 | < 1e-05 | 
13 | A12U A14C U47A | 0.000117 ± 2.3e-05 | 0.000593 ± 0.00011 | 0.00107 ± 0.00025 | 
14 | G43U G59U | < 1e-05 | < 1e-05 | < 1e-05 | 
15 | G7A U56C | < 1e-05 | < 1e-05 | < 1e-05 | < 1e-05
16 | A15G G40U C70A | 4.48e-05 ± 1.3e-05 | 0.000328 ± 8e-05 | 0.000773 ± 0.00016 | 0.000531 ± 0.00014
17 | A15U G32U A36G G43U U65A C67U | < 1e-05 | < 1e-05 |  | 
18 | A6U A12C A53U | < 1e-05 | 3.14e-05 ± 1.3e-05 | 4.17e-05 ± 1.6e-05 | 
19 | A14C U47G C70A | 6.05e-05 ± 2.8e-05 | 0.000114 ± 3.4e-05 | 6.72e-05 ± 1.5e-05 | 
20 | C11U C70G | 0.000313 ± 0.00014 | 9e-05 ± 9.9e-06 | 0.000104 ± 8.7e-06 | 6.56e-05 ± 5.5e-06
21 | C11U U46G C50G | 5.55e-05 ± 1.9e-05 | 6.4e-05 ± 1.8e-05 |  | 
22 | C10G C50G C67U | 9.87e-05 ± 2.3e-05 |  | 0.000267 ± 5.1e-05 | 
23 | A39C G51A G63C | < 1e-05 | < 1e-05 |  | 
24 | G44A G66C | < 1e-05 |  |  | 
25 | C8U U31G G44U C71G | < 1e-05 | < 1e-05 |  | 

Row | Variant | self-cleavage kobs at 160 uM GlcN6P (glucosamine-6-phosphate [1]) [s⁻¹] | self-cleavage kobs at 640 uM GlcN6P (glucosamine-6-phosphate [2]) [s⁻¹] | self-cleavage kobs at 2500 uM GlcN6P (glucosamine-6-phosphate [3]) [s⁻¹] | self-cleavage kobs at 10000 uM GlcN6P (glucosamine-6-phosphate [4]) [s⁻¹]
26 | U31A G38A A42C | < 1e-05 | < 1e-05 |  | 
27 | A14G U56A C67A | 0.00127 ± 0.00033 | 0.00567 ± 0.0018 | 0.00817 ± 0.0024 | 
28 | G7A A36G | < 1e-05 | < 1e-05 | < 1e-05 | 
29 | U30C G40U U65G | < 1e-05 |  |  | 
30 | A15U G40U A48C | < 1e-05 | < 1e-05 |  | 
31 | G29C U30C G37C C70G | 9.14e-05 ± 2.9e-05 | 0.000358 ± 0.00011 | 0.000111 ± 3.5e-05 | 
32 | U30C G43U | < 1e-05 |  | < 1e-05 | < 1e-05
33 | G9A U31C G51U G59U C68G | < 1e-05 |  |  | 
34 | C11U G29U G40A | < 1e-05 | < 1e-05 |  | 5.39e-05 ± 1.7e-05
35 | A12G A36U C50G A64U C68U | 6.37e-05 ± 2.6e-05 |  |  | 
36 | G7C A24U U46A C68U | < 1e-05 | < 1e-05 |  | < 1e-05
37 | A33U G37C U46C | < 1e-05 | < 1e-05 | < 1e-05 | 
38 | G13U G29A G66C | < 1e-05 |  |  | 
39 | G38A A64G | < 1e-05 |  |  | 
40 | A52C G59U | < 1e-05 | < 1e-05 | < 1e-05 | < 1e-05
41 | A52C G59A | < 1e-05 | < 1e-05 | < 1e-05 | < 1e-05
42 | G44U G62A | < 1e-05 | < 1e-05 | < 1e-05 | 
43 | C11G A33U C34A G41A U54A | < 1e-05 | < 1e-05 | < 1e-05 | 
44 | U2C C16G A53C | 4.66e-05 ± 1.6e-05 | 0.000137 ± 1.9e-05 | 0.000285 ± 4.6e-05 | 
45 | A15G U47G C68G | 0.000236 ± 8.5e-05 |  | 3e-05 ± 1.3e-05 | 
46 | C8A C10G C34A | < 1e-05 | < 1e-05 | < 1e-05 | 
47 | U49G G51C C61U G63A | < 1e-05 |  |  | 
48 | G51U A53U | < 1e-05 | < 1e-05 | < 1e-05 | < 1e-05
49 | C11G G29U U69G | 0.000155 ± 3.5e-05 | 0.000133 ± 3.6e-05 |  | 
50 | A14U U30A A33U G51A | < 1e-05 |  |  | 

Row | Variant | self-cleavage kobs at 160 uM GlcN6P (glucosamine-6-phosphate [1]) [s⁻¹] | self-cleavage kobs at 640 uM GlcN6P (glucosamine-6-phosphate [2]) [s⁻¹] | self-cleavage kobs at 2500 uM GlcN6P (glucosamine-6-phosphate [3]) [s⁻¹] | self-cleavage kobs at 10000 uM GlcN6P (glucosamine-6-phosphate [4]) [s⁻¹]
51 | G37A G44A U46C A48U C71U | < 1e-05 | < 1e-05 | < 1e-05 | 
52 | G40A A42U U49C C58G A64G C70G | < 1e-05 | < 1e-05 | < 1e-05 | 
53 | A12U U46C C67A | 0.00011 ± 2.6e-05 |  | 0.00113 ± 0.0002 | 
54 | C11U G29U A39C U54A | < 1e-05 |  |  | 
55 | A36U U57C | < 1e-05 |  |  | < 1e-05
56 | U45G G51U | < 1e-05 | < 1e-05 |  | < 1e-05
57 | A6U C10A A39G G40C C61G C67G | < 1e-05 | < 1e-05 | < 1e-05 | 
58 | C8U G9C U31G A33C | < 1e-05 | < 1e-05 | < 1e-05 | 
59 | C8U G37C A39G | < 1e-05 | < 1e-05 | < 1e-05 | < 1e-05
60 | A33U C68G C71A | < 1e-05 | < 1e-05 |  | 
61 | A48C A52U | < 1e-05 | < 1e-05 | < 1e-05 | < 1e-05
62 | G13C A36U | < 1e-05 | < 1e-05 | < 1e-05 | < 1e-05
63 | C8A A33U G51A | < 1e-05 | < 1e-05 |  | 
64 | G35A G63A | < 1e-05 |  |  | < 1e-05
65 | G43U U69G | < 1e-05 | < 1e-05 |  | < 1e-05
66 | C50U A52G C70A | 5.11e-05 ± 2.3e-05 | 0.000125 ± 3.7e-05 | 6.9e-05 ± 2.3e-05 | 
67 | C8A G9U C19A G29C C34A A48C | < 1e-05 |  | < 1e-05 | 
68 | G40U A64U U65G C71G | < 1e-05 | < 1e-05 |  | 
69 | G35C U65C G66A | < 1e-05 | < 1e-05 | < 1e-05 | 
70 | G41C A52C C68U | < 1e-05 |  |  | 
71 | A14C A23C G43C | < 1e-05 | < 1e-05 | < 1e-05 | 
72 | G35C U47G U55G | < 1e-05 |  |  | < 1e-05
73 | U47G C50U U56C A64U | < 1e-05 | < 1e-05 | < 1e-05 | < 1e-05
74 | U46G U56G C70U | 0.000211 ± 5.3e-05 | 0.000436 ± 9.2e-05 | 0.00119 ± 0.00031 | 
75 | G51U U56C U57C G63U | < 1e-05 | < 1e-05 | < 1e-05 | < 1e-05

Row | Variant | self-cleavage kobs at 160 uM GlcN6P (glucosamine-6-phosphate [1]) [s⁻¹] | self-cleavage kobs at 640 uM GlcN6P (glucosamine-6-phosphate [2]) [s⁻¹] | self-cleavage kobs at 2500 uM GlcN6P (glucosamine-6-phosphate [3]) [s⁻¹] | self-cleavage kobs at 10000 uM GlcN6P (glucosamine-6-phosphate [4]) [s⁻¹]
76 | C34U U47A A48G U69G | < 1e-05 |  |  | 
77 | A14G U49A U56A G62A C71U | < 1e-05 |  |  | 
78 | C8G A14G A15U G41C U47G U56A | < 1e-05 | < 1e-05 | < 1e-05 | 
79 | A33G G37U G59C | < 1e-05 |  | < 1e-05 | 
80 | G9A G43C G44C G62U | < 1e-05 | < 1e-05 | < 1e-05 | 
81 | G7C A14U C16G U30A U56A C67G | < 1e-05 | < 1e-05 |  | 
82 | G32C U47A G62C A64G | < 1e-05 | < 1e-05 | < 1e-05 | 
83 | G29U G43A C70A | < 1e-05 |  |  | 
84 | C10A G35C C67U | < 1e-05 |  | < 1e-05 | 
85 | C8U C50G G63U | 0.000108 ± 2.8e-05 |  | 5.35e-05 ± 2.6e-05 | 
86 | A12C G51U C58G C61A | < 1e-05 |  |  | 
87 | A36U G41A A42U G43U | < 1e-05 | < 1e-05 | < 1e-05 | 
88 | C16A G37C G59C | < 1e-05 | < 1e-05 |  | 
89 | C8A G59A | < 1e-05 | < 1e-05 | < 1e-05 | < 1e-05
90 | U45C C50G G51A A53U G60C | < 1e-05 | < 1e-05 | < 1e-05 | 
91 | U2C G9U U56A C71U | < 1e-05 | < 1e-05 |  | 
92 | A14U U57C G66U | < 1e-05 |  |  | 
93 | A12G G35U G51U C68G U69A | < 1e-05 | < 1e-05 |  | 
94 | G13A C58G G59U | < 1e-05 |  |  | 
95 | G41A A48U A64U C71A | < 1e-05 |  | < 1e-05 | 
96 | G9U U30G G35U G51A | < 1e-05 | < 1e-05 |  | 
97 | C8U C16G G51U | < 1e-05 | < 1e-05 | < 1e-05 | 
98 | C8G G21U C34A A64G | < 1e-05 | < 1e-05 | < 1e-05 | 
99 | C16G G38A | < 1e-05 | < 1e-05 |  | < 1e-05
100 | A6U A14G A15U U31G U55G | < 1e-05 | < 1e-05 | < 1e-05 | 
